In paper PMC4156411:
pKd: −log10 of the molar value.

Assays:
Experiment in all cases: ELASA
Conditions in all cases: ELASA: VLPs 3 ug/ml coated, blocked with 5% skim milk in PBST plus unrelated DNA, 1 uM biotinylated aptamer (10 nM-2 uM for Kd), 1 h at RT, PBST washes
[1] = test system: GI.4 VLP, major capsid protein (Human norovirus GI.4)
[2] = test system: GI.6 VLP, major capsid protein (Human norovirus GI.6)
[3] = test system: GI.7 VLP, major capsid protein (Human norovirus GI.7)
[4] = test system: GI.8 VLP, major capsid protein (Human norovirus GI.8)
[5] = test system: GII.1 VLP, major capsid protein (Human norovirus GII.1)
[6] = test system: GII.12 VLP, major capsid protein (Human norovirus GII.12)
[7] = test system: GII.17 VLP, major capsid protein (Human norovirus GII.17)
[8] = molecular target: T1, GII.2 (SMV) VLP, major capsid protein (Human norovirus GII.2 (Snow Mountain virus)) (UniProt K7X601)
T1 sequence: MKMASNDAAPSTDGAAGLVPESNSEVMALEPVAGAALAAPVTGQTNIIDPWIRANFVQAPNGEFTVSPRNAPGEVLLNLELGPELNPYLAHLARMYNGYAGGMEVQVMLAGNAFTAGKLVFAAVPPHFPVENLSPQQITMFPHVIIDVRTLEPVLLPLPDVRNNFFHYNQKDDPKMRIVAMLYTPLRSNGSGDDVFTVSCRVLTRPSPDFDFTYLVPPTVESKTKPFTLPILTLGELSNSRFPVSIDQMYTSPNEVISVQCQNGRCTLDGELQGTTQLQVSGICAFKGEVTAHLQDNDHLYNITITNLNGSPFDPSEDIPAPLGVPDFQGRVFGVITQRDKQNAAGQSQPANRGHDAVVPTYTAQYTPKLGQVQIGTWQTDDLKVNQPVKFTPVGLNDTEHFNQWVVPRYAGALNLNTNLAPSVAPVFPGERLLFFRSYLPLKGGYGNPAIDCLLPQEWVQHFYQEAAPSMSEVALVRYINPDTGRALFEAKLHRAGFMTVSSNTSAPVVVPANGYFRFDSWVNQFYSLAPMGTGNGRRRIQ

[9] = test system: GII.3 VLP, major capsid protein (Human norovirus GII.3)
[10] = test system: GII.4 (Grimsby) VLP, major capsid protein (Human norovirus GII.4 (Grimsby virus))
[11] = test system: GII.4 (Houston) VLP, major capsid protein (Human norovirus GII.4 (Houston))
[12] = test system: GII.6 VLP, major capsid protein (Human norovirus GII.6)
[13] = test system: GII.7 VLP, major capsid protein (Human norovirus GII.7)

Row | Sequence | binding signal [1] | binding signal [2] | binding signal [3] | binding signal [4] | binding signal [5] | binding signal [6] | binding signal [7] | pKd [8] | binding signal [8] | binding signal [9] | binding signal [10] | binding signal [11] | binding signal [12] | binding signal [13]
1 | AGTATACGTATTACCTGCAGCCACCAGTGTGTTGAGGTTTGAGCACACTGATAGAGTGTCACGATATCTCGGAGATCTTGC [SMV-19] | 1.7 T/N ratio | 3.7 T/N ratio | 10.3 T/N ratio | 1.7 T/N ratio | 7.1 T/N ratio | 1.5 T/N ratio | 3 T/N ratio | 6.72 | 12.9 T/N ratio | 1.7 T/N ratio | 9.6 T/N ratio | 12.5 T/N ratio | 1.8 T/N ratio | 4 T/N ratio
2 | AGTATACGTATTACCTGCAGCCATCTGTGTGAAGACTATATGGCGCTCACATATTTCTTTCCGATATCTCGGAGATCTTGC [SMV-25] | 5.6 T/N ratio | 2.4 T/N ratio | 3.5 T/N ratio | 6.2 T/N ratio | 9.4 T/N ratio | 1.9 T/N ratio | 2 T/N ratio | 6.63 | 12.4 T/N ratio | 5.4 T/N ratio | 10.4 T/N ratio | 11 T/N ratio | 7.3 T/N ratio | 9.1 T/N ratio
3 | AGTATACGTATTACCTGCAGCCCATGTTTTGTAGGTGTAATAGGTCATGTTAGGGTTTCTGCGATATCTCGGAGATCTTGC [SMV-21] | 4.3 T/N ratio | 3.8 T/N ratio | 8.1 T/N ratio | 4.6 T/N ratio | 8.6 T/N ratio | 6.6 T/N ratio | 12.2 T/N ratio | 7.00 | 18.1 T/N ratio | 11.8 T/N ratio | 6.4 T/N ratio | 11.3 T/N ratio | 3 T/N ratio | 13.5 T/N ratio
4 | AGTATACGTATTACCTGCAGCTGACCGAGTGTCTGGTCATTTTCGATGTCTGTTGTTAGGCCGATATCTCGGAGATCTTGC [SMV-26] | 1.1 T/N ratio | 1.5 T/N ratio | 1.8 T/N ratio | 1.2 T/N ratio | 2.1 T/N ratio | 2.4 T/N ratio | 1.3 T/N ratio | 6.55 | 4.1 T/N ratio | 2.4 T/N ratio | 3.2 T/N ratio | 2.8 T/N ratio | 2.8 T/N ratio | 2.8 T/N ratio
